How the values were obtained:
Type in all cases: biochemical
[1] = HTP-analysis of yeast culture supernatants, no challenge (MUGal hydrolysis); conditions: activity of the variant/activity of Rd4BB (SEQ ID NO: 15)
Procedure, shortened: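 GLA variants were expressed in INVSc1 yeast grown in SD-Ura broth with glucose at 30° C., and culture supernatants were collected after 66-84 h. Supernatant was mixed with McIlvaine buffer pH 4.8 and MUGal (2 mM stock) in 50 mM citrate, 200 mM KCl, pH 4.6, incubated at 37° C. for 30-180 minutes, then quenched with sodium carbonate.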

[2] = HTP-analysis of supernatants pretreated with acid (MUGal hydrolysis); conditions: activity of the variant/activity of Rd4BB (SEQ ID NO: 15); challenge at pH 3.7
Procedure, shortened: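 Yeast INVSc1 supernatant, GLA variants; acid challenge: McIlvaine pH 3.3-4.3, 37° C., 1-3 h. Assay: MUGal in McIlvaine pH 4.8 plus citrate pH 4.3, 37° C., 30-180 min, Na2CO3 stop, Ex 355/Em 448 nm.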

[3] = HTP-analysis of supernatants pretreated with base (MUGal hydrolysis); conditions: activity of the variant/activity of Rd4BB (SEQ ID NO: 15); challenge at pH 9.65
Procedure, shortened: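 Supernatants from INVSc1 yeast expressing GLA variants (SD-Ura, 66-84 h, 30° C) were mixed with McIlvaine buffer pH 7.0-8.2 or 200 mM sodium bicarbonate pH 9.1-9.7 and held 1-18 h at 37° C. Residual activity was then measured on MUGal at pH 4.8/4.3, 37° C, 30-180 min, by fluorescence (Ex 355/Em 448 nm).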

Molecule | Relative Activity of GLA Variants After No Challenge (NC) [1] | Relative Activity of GLA Variants After Challenge at pH 3.7 [2] | Relative Activity of GLA Variants After Challenge at pH 9.65 [3]
439 (protein, Synthetic Polypeptide sequence of Variant No. 439 of mature Human GLA) LDNGLARTPTMGWLHWERFMCNLDCQEEPDSCISEKLFMEMAERMVSEGWKDAGYEYLCIDDCWMAPQRDSEGRLQADPQRFPHGIRQLANYVHSKGLKLGIYADVGNKTCAGFPGSFGYYDIDAQTFADWGVDLLKFDGCYCDSLENLADGYKHMSLALNRTGRSIVYSCEWPLYMWPFQKPNYTEIRQYCNHWRNFADIDDSWKSIKSILDWTSRNQERIVDVAGPGGWNDPDMLVIGNFGLSWDQQVTQMALWAIMAAPLFMSNDLRAISPQAKALLQDKDVIAINQDPLGKQGYQLRKGDNFEVWERPLSGDAWAVAIINRQEIGGPRSYTIPVASLGKGVACNPACFITQLLPVKRQLGFYNWTSRLKSHINPTGTVLLQLENTMQMSLKDLL | + (0.5 to 1.5 relative activity over Rd4BB (SEQ ID NO: 15)) | + (0.5 to 1.5 relative activity over Rd4BB (SEQ ID NO: 15)) | + (0.5 to 1.5 relative activity over Rd4BB (SEQ ID NO: 15))
446 (protein, Synthetic Polypeptide sequence of Variant No. 446 of mature Human GLA) LDNGLARTPTMGWLHWERFMCNLDCQEEPDSCISEKLFMEMAERMVSEGWKDAGYEYLCIDDCWMAPQRDSEGRLQADPQRFPHGIRQLANYVHSKGLKLGIYADVGNKTCAGFPGSFGYYDIDAQTFADWGVDLLKFDGCYCDSLENLADGYKHMSLALNRTGRSIVYSCEWPLYMWPFQKPNYTEIRQYCNHWRNFADIDDSWKSIKSILDWTSRNQERIVDVAGPGGWNDPDMLVIGNFGLSWDQQVTQMALWAIAAAPLFMSNDLRHISPQAKALLQDKDVIAINQDPLGKQGYQLRKGDNFEVWERPLSGDAWAVAIINRQEIGGPRSYTIPVASLGKGVACNPACFITQLLPVKRQLGFYNWTSRLKSHINPTGTVLLQLENTMQMSLKDLL | + (0.5 to 1.5 relative activity over Rd4BB (SEQ ID NO: 15)) | − (<0.5 relative activity over Rd4BB (SEQ ID NO: 15)) | − (<0.5 relative activity over Rd4BB (SEQ ID NO: 15))
440 (protein, Synthetic Polypeptide sequence of Variant No. 440 of mature Human GLA) LDNGLARTPTMGWLHWERFMCNLDCQEEPDSCISEKLFMEMAERMVSEGWKDAGYEYLCIDDCWMAPQRDSEGRLQADPQRFPHGIRQLANYVHSKGLKLGIYADVGNKTCAGFPGSFGYYDIDAQTFADWGVDLLKFDGCYCDSLENLADGYKHMSLALNRTGRSIVYSCEWPLYMWPFQKPNYTEIRQYCNHWRNFADIDDSWKSIKSILDWTSRNQERIVDVAGPGGWNDPDMLVIGNFGLSWDQQVTQMALWAIMAAPCFMSNDLRHISPQAKALLQDKDVIAINQDPLGKQGYQLRKGDNFEVWERPLSGDAWAVAIINRQEIGGPRSYTIPVASLGKGVACNPACFITQLLPVKRQLGFYNWTSRLKSHINPTGTVLLQLENTMQMSLKDLL | + (0.5 to 1.5 relative activity over Rd4BB (SEQ ID NO: 15)) | + (0.5 to 1.5 relative activity over Rd4BB (SEQ ID NO: 15)) | − (<0.5 relative activity over Rd4BB (SEQ ID NO: 15))
442 (protein, Synthetic Polypeptide sequence of Variant No. 442 of mature Human GLA) LDNGLARTPTMGWLHWERFMCNLDCQEEPDSCISEKLFMEMAERMVSEGWKDAGYEYLCIDDCWMAPQRDSEGRLQADPQRFPHGIRQLANYVHSKGLKLGIYADVGNKTCAGFPGSFGYYDIDAQTFADWGVDLLKFDGCYCDSLENLADGYKHMSLALNRTGRSIVYSCEWPLYMWPFQKPNYTEIRQYCNHWRNFADIDDSWKSIKSILDWTSRNQERIVDVAGPGGWNDPDMLVIGNFGLSWDQQVTQMAAWAIMAAPLFMSNDLRHISPQAKALLQDKDVIAINQDPLGKQGYQLRKGDNFEVWERPLSGDAWAVAIINRQEIGGPRSYTIPVASLGKGVACNPACFITQLLPVKRQLGFYNWTSRLKSHINPTGTVLLQLENTMQMSLKDLL | + (0.5 to 1.5 relative activity over Rd4BB (SEQ ID NO: 15)) | + (0.5 to 1.5 relative activity over Rd4BB (SEQ ID NO: 15)) | − (<0.5 relative activity over Rd4BB (SEQ ID NO: 15))
444 (protein, Synthetic Polypeptide sequence of Variant No. 444 of mature Human GLA) LDNGLARTPTMGWLHWERFMCNLDCQEEPDSCISEKLFMEMAERMVSEGWKDAGYEYLCIDDCWMAPQRDSEGRLQADPQRFPHGIRQLANYVHSKGLKLGIYADVGNKTCAGFPGSFGYYDIDAQTFADWGVDLLKFDGCYCDSLENLADGYKHMSLALNRTGRSIVYSCEWPLYMWPFQKPNYTEIRQYCNHWRNFADIDDSWKSIKSILDWTSRNQERIVDVAGPGGWNDPDMLVIGNFGLSWDQQVTQMALWAIWAAPLFMSNDLRHISPQAKALLQDKDVIAINQDPLGKQGYQLRKGDNFEVWERPLSGDAWAVAIINRQEIGGPRSYTIPVASLGKGVACNPACFITQLLPVKRQLGFYNWTSRLKSHINPTGTVLLQLENTMQMSLKDLL | + (0.5 to 1.5 relative activity over Rd4BB (SEQ ID NO: 15)) | − (<0.5 relative activity over Rd4BB (SEQ ID NO: 15)) | + (0.5 to 1.5 relative activity over Rd4BB (SEQ ID NO: 15))
445 (protein, Synthetic Polypeptide sequence of Variant No. 445 of mature Human GLA) LDNGLARTPTMGWLHWERFMCNLDCQEEPDSCISEKLFMEMAERMVSEGWKDAGYEYLCIDDCWMAPQRDSEGRLQADPQRFPHGIRQLANYVHSKGLKLGIYADVGNKTCAGFPGSFGYYDIDAQTFADWGVDLLKFDGCYCDSLENLADGYKHMSLALNRTGRSIVYSCEWPLYMWPFQKPNYTEIRQYCNHWRNFADIDDSWKSIKSILDWTSRNQERIVDVAGPGGWNDPDMLVIGNFGLSWDQQVTQMALWAIMAAPFFMSNDLRHISPQAKALLQDKDVIAINQDPLGKQGYQLRKGDNFEVWERPLSGDAWAVAIINRQEIGGPRSYTIPVASLGKGVACNPACFITQLLPVKRQLGFYNWTSRLKSHINPTGTVLLQLENTMQMSLKDLL | + (0.5 to 1.5 relative activity over Rd4BB (SEQ ID NO: 15)) | + (0.5 to 1.5 relative activity over Rd4BB (SEQ ID NO: 15)) | − (<0.5 relative activity over Rd4BB (SEQ ID NO: 15))
443 (protein, Synthetic Polypeptide sequence of Variant No. 443 of mature Human GLA) LDNGLARTPTMGWLHWERFMCNLDCQEEPDSCISEKLFMEMAERMVSEGWKDAGYEYLCIDDCWMAPQRDSEGRLQADPQRFPHGIRQLANYVHSKGLKLGIYADVGNKTCAGFPGSFGYYDIDAQTFADWGVDLLKFDGCYCDSLENLADGYKHMSLALNRTGRSIVYSCEWPLYMWPFQKPNYTEIRQYCNHWRNFADIDDSWASIKSILDWTSRNQERIVDVAGPGGWNDPDMLVIGNFGLSWDQQVTQMASWAIMAAPLFMSNDLRHISPQAKALLQDKDVIAINQDPLGKQGYQLRKGDNFEVWERPLSGDAWAVAIINRQEIGGPRSYTIPVASLGKGVACNPACFITQLLPVKRQLGFYNWTSRLKSHINPTGTVLLQLENTMQMSLKDLL | + (0.5 to 1.5 relative activity over Rd4BB (SEQ ID NO: 15)) | +++ (>2.5 relative activity over Rd4BB (SEQ ID NO: 15)) | − (<0.5 relative activity over Rd4BB (SEQ ID NO: 15))
441 (protein, Synthetic Polypeptide sequence of Variant No. 441 of mature Human GLA) LDNGLARTPTMGWLHWERFMCNLDCQEEPDSCISEKLFMEMAERMVSEGWKDAGYEYLCIDDCWMAPQRDSEGRLQADPQRFPHGIRQLANYVHSKGLKLGIYADVGNKTCAGFPGSFGYYDIDAQTFADWGVDLLKFDGCYCDSLENLADGYKHMSLALNRTGRSIVYSCEWPLYMWPFQKPNYTEIRQYCNHWRNFADIDDSWKSIKSILDWTSRNQERIVDVAGPGGWNDPDMLVIGNFGLSWDQQVTQMALWAIMAAPLFMSNDLRVISPQAKALLQDKDVIAINQDPLGKQGYQLRKGDNFEVWERPLSGDAWAVAIINRQEIGGPRSYTIPVASLGKGVACNPACFITQLLPVKRQLGFYNWTSRLKSHINPTGTVLLQLENTMQMSLKDLL | + (0.5 to 1.5 relative activity over Rd4BB (SEQ ID NO: 15)) | − (<0.5 relative activity over Rd4BB (SEQ ID NO: 15)) | + (0.5 to 1.5 relative activity over Rd4BB (SEQ ID NO: 15))

From US11278600B2, “Human alpha-galactosidase variants” (Codexis, Inc., priority 2014, dated 2022)
